The target in experiment [1] is T1, cynomolgus TNFR2-His tagged protein (cynomolgus, UniProt A0A2K5VET2 132-366).
T1 construct: also called Cyno TNFR2; cynomolgus TNFR2 protein; not shown: His tag
T1 sequence: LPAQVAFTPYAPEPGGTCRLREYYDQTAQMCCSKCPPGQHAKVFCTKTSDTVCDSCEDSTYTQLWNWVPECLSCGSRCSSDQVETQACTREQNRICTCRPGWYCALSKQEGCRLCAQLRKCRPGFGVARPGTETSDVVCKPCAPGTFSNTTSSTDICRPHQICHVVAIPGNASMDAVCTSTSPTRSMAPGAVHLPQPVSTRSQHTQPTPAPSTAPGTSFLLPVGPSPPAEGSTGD
The experiment in a line: ELISA on coated cynomolgus TNFR2-His. As to the method:
(§1) In FIGS. 3A-3B, human (3A) or cynomolgus (3B) TNFR2-His tagged protein was coated on 96-well ELISA plates at 1 μg/mL and incubated overnight at 4° C. Plates were washed and blocked using 1% BSA. Antibodies were added for 1 hour at room temperature (RT), washed, and detected using anti-Human HRP. Assay was developed using TMB substrate for 3-5 minutes. In FIG. 3C, FACS binding was performed on CHO cells that were engineered to express human TNFR2. Briefly, antibodies were incubated with 200,000 cells in MACS buffer for 1 hour followed by wash and detection using anti-human IgG BV421 for 20 minutes. Samples were analyzed using Cytoflex or MACSQuant flow cytometers. In FIG. 3D, ligand blocking ELISA was performed by coating plates with 1 ug/mL TNFR-Fc overnight at 4° C. Plates were washed, blocked and antibodies were incubated for 1 hr at RT. […] Assay was developed using TMB substrate for 5-7 minutes.

Experiment [2] deals with T2, soluble mouse TNFR2 (mouse, UniProt P25119 23-258, limits assumed).
T2 sequence (looked up): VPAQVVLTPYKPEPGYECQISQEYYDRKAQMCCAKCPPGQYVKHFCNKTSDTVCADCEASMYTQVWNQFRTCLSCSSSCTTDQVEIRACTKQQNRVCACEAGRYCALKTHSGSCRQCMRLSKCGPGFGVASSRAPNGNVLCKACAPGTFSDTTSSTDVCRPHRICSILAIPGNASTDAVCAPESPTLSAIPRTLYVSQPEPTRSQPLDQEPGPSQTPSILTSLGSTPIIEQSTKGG
The experiment in a line: binding screen on soluble mouse TNFR2 (mouse cross-reactivity).

In experiment [3] the target is T3, human TNFR2-His tagged protein (soluble) (human, UniProt P20333 23-257).
T3 construct: also called hTNFR2 (soluble); soluble TNFR2-His; not shown: His tag
T3 sequence (looked up): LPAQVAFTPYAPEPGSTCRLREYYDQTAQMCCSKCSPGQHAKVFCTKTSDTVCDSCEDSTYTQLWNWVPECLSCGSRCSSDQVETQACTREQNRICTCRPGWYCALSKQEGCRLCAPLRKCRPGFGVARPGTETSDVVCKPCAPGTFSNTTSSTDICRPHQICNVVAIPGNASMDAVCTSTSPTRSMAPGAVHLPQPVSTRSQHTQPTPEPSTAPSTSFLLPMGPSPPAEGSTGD
The experiment in a line: ELISA on coated human TNFR2-His. How it is done: as §1
For orientation: An ELISA detects its analyte on a solid surface through an enzyme-linked reagent.

In experiment [4] the target is T4, TNFR-Fc (UniProt P20333 23-257, limits assumed).
T4 construct: Printed only as TNFR-Fc; not shown: Fc part
T4 sequence (looked up): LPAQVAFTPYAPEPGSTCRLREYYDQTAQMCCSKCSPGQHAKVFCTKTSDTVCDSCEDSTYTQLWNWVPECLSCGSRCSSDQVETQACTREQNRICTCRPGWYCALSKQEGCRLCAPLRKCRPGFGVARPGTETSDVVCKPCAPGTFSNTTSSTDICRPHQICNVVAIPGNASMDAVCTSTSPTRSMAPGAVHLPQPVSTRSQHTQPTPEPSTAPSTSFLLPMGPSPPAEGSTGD
As to the kind of experiment: TNF-α blocking ELISA on coated TNFR-Fc. As to the method: as §1

Experiment [5] deals with T5, human TNFR2 expressed on cells (human, UniProt P20333 23-461).
T5 construct: whole, on cells; also called hTNFR2 (cell); CHO-TNFR2
T5 sequence (looked up): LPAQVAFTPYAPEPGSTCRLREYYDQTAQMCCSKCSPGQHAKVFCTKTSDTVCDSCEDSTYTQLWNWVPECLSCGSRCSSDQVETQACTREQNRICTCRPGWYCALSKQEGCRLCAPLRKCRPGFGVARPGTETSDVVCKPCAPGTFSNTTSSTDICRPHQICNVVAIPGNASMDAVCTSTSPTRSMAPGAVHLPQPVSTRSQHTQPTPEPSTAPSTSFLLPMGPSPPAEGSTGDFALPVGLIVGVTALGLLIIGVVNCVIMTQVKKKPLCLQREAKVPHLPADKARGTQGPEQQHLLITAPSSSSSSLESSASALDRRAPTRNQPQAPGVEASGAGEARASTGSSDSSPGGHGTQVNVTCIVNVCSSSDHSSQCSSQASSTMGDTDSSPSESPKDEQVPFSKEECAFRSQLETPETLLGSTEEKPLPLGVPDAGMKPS
The experiment in a line: flow cytometry on CHO cells expressing human TNFR2. As to the method: as §1

B1: chimeric antibody clone 8G10.7 (rab600_23_8G10.7) (antibody, V domains shown)
VH: LEQSGGGAGGGLVKPGGSLELCCKASGFTLINSHWICWVRQAPGKGLEWIGCIFAGSAGSTYYATWVSGRFTLSRDIDQNTGCLQLNSLTAADTAMYYCARDQTNTAYDPFYLNLWGQGTLVTVSS
VL: IEMTQTPFSVSAAVGGTVTINCQASENIYSSLAWYQQKPGQPPKLLIYAASDLASGVPSRFSGSGSGTEYTLTISGVQCADAATYYCQSAYSSGSDDNGFGGGTEVVVK
As usually defined, the EC50 is the concentration at which the effect is half-maximal. Take B1: the half-maximal effective concentration (EC50) worked out at 0.269 nM in experiment [1] and 0.243 nM in experiment [3]. Further, the binding result in experiment [2] was “no binding”.

B2: chimeric antibody clone 9 (rab600_25_9) (antibody, V domains shown)
VH: QSVEESGGRLVTPGTPLTLTCTVSGFSLSTYDINWVRQAPGKGLEWIGIIYTGGITNFANWAKGRFTISKTSTTVDLKIASPTTEDTATYFCARGGYDSDGYVYPDAFDPWGPGTLVTVSS
VL: ALVMTQTPASVEADVGGTVTINCQASESISNLLAWYQQKPGQRPKLLIYRASILTSGVSSRFKGSGSGTEYTLTINGVQCADAATYYCQHGYTGTNVQNVFGGGTEVVVK
In general, IC50 refers to the concentration at which inhibition is half-maximal. Read a low IC50 as greater potency in that assay. For B2, the EC50 in experiment [1] amounted to 0.151 nM; in experiment [3], 0.144 nM; in experiment [5], 0.147 nM. The binding result in experiment [2] is listed as “no binding”. The same molecule yielded an IC50 in experiment [4] of 2.78 nM.

B3: chimeric antibody clone 28B7.3 (rab600_23_28B7.3) (antibody, V domains shown)
VH: QSVEESGGRLVTPGTPLTLTCTVSGFSLNSHYMIWVRQAPGKGLEYIGIITSSDYIYYARWAKGRFTISKTSSTTVDLKITSPTTEDTATYSCARYNYDDDGELFNLWGQGTLVTVSS
VL: AVLTQTPSSVSAAVGGTVTLNCQSSQSIDANNDLAWYQQKPGQPPRLLIYLASKLASGVPSRFSGSGSGTQFTLTISGVQCDDAATYYCLGGYDDDADNTFGGGTEVVVK
With B3, the EC50 came to 0.0763 nM in experiment [1], 0.149 nM in experiment [3] and 0.321 nM in experiment [5]. The binding result in experiment [2] was “no binding”. In addition, in experiment [4], half-maximal inhibition (IC50) was put at 2.97 nM.

B4: chimeric antibody clone 37H4.1 (rab600_23_37H4.1) (antibody, V domains shown)
VH: QSVEESGGRLVTPGTPLTLTCTVSGFSLNSHYMIWVRQAPGKGLEYIGVITSSDYIYYARWAKGRFTISKTSSTTVDLKITSPTTEDTATYFCARYNYDDDGELFNLWGQGTLVTVSS
VL: AVLTQTPSSVSAAVGGTVTLNCQSSQSIDANNDLAWYQQKPGQPPKLLIYLASTRASGVPSRFKGSGSGTQFTLTISGVQCYDAATYYCLGGYDDDADNTFGGGTEVVVK
Consider B4, for which the EC50 in experiment [1] came out at 0.195 nM; in experiment [3], 0.184 nM. Further, the binding result in experiment [2] is “no binding”. Inhibition in experiment [4] was half-maximal at 2.92 nM (IC50).

B5: chimeric antibody clone 24 (rab600_23_24) (antibody, V domains shown)
VH: QSLEESGGRLVTPGTPLTLTCTASGFSLNSYGVNWVRQAPGKGLEWIGGINTGGSTYYANWAKGRFTISKTSAMVDLKVTSPTTEDTATYVCARTSGNNVYNYFTLWGQGTLVTVSS
VL: DIVMTQTPSSVSAAVGGTVTIYCQASQSIPSLLAWYQQKSGQPPKLLIYAPSTLASGVPSRFKASGSGTQFTLTISDLECADAATYYCQSYYYGDNTYNNIFGGGTEVVVK
In the case of B5, the values for the EC50 in experiment [1], in experiment [3] and in experiment [5] were 0.093 nM, 0.098 nM and 0.1 nM, respectively. Also, the binding result in experiment [2] was “no binding”. In experiment [4], this molecule returned an IC50 of 3.16 nM.

B6: chimeric antibody clone 8G11.5 (rab600_23_8G11.5) (antibody, V domains shown)
VH: QSLEESGGRLVTPGTPLTLTCTVSGFSLNSNGMNWVRQAPGKGLEWIGGINAGGSAYYANWAKGRFTISKTSTMVDLKITSPTTEDTATYFCAKTSGINVYNYLNLWGQGTLVTVSS
VL: DIVMTQTPSPVSAAVGGTVTINCQASQSIYTALAWYQQKSGQPPKLLIYAASTLASGVPSRFKGSGSGTQFTLTISDLECADAATYYCQNYYYGDNTYNNTFGGGTEVVVK
For the molecule B6, the EC50 in experiment [1] turned out to be 0.0927 nM; in experiment [3], 0.157 nM. For the same molecule, in experiment [2], the binding result was “no binding”. 24.6 nM corresponded to half-maximal inhibition in experiment [4] (IC50).

B7: chimeric antibody clone 37D1.4 (rab600_23_37D1.4) (antibody, V domains shown)
VH: QSLEESGGRLVTPGTPLTLTCTVSGFSLNSNGMNWVRQAPGKGLEWIGGINAGGSAYYANWAKGRFTISKTSTMVDLKITSPTTEDTATYFCAKTSGINVYNYLNLWGQGTLVTVSS
VL: DIVMTQTPSPVSAAVGGTVTINCQASQSIYTALAWYQQKSGQPPKLLIYAASTLASGVPSRFKGSGSGTQFTLTISDLECADAATYYCQNYYYGDNTYNNTFGGGTEVVVK
For B7, the results for the concentration giving a half-maximal response (EC50) in experiment [1] and in experiment [3] were 0.081 nM and 0.156 nM, respectively. Also, in experiment [2], the binding result is “no binding”. Besides, the IC50 in experiment [4] came out at 27.8 nM.

B8: chimeric antibody clone 55F6.1 (taken as rab600_23_55F6.6) (antibody, V domains shown)
VH: QQQLEESGGDLVKPGASLTVTCTASGFSFTNNYYMCWVRQAPGKGLEWIGCIYPSIVGPTYYANWAKGRFTISKTSSTTVTLEMTSLTAADTATYFCVRDRYDDYGDYFNLWGPGTLVTVSS
VL: DIVMTQTPASVSVPVGGTVTIKCQASQSIYNYLSWYQQKPGQPPKRLIYYASTLASGVPSRFSGSGSGTEFTLTISDLECADAATYYCQSNSGVNGNRYGNAFGGGTEVVVK
With B8, the values for the EC50 in experiment [1], in experiment [3] and in experiment [5] were 0.0862 nM, 0.124 nM and 1.32 nM, respectively. Besides, the binding result in experiment [2] is reported as “no binding”. Besides, it took 4.35 nM to reach half-maximal inhibition in experiment [4] (IC50).

B9: chimeric antibody clone 23.71 (rab600_23_71) (antibody, V domains shown)
VH: QSVEESGGRLVTPGTSLTLTCTVSGIDLSSYAMSWVRQAQGKGLEWIGIIGDSGSTWYASWAKGRFTISKTSTTVDLKITSPTPEDTATYFCAREPDYGGYAGYGYGDLWGQGTLVTVSS
VL: IKMTQTLASVSAAVGGTGSISCQASEDIGNYVAWYQQKPGQPPKFLIYDTSHLASGVPSRFKGSRSGKEFTLTISGVQCDDAATYYCQHGYYTSDTDNTFGGGTEVVVK
In the case of B9, the EC50 was found to be 0.243 nM in experiment [1], 0.206 nM in experiment [3] and 0.26 nM in experiment [5]. Further, in experiment [2], the binding result is “no binding”. Moreover, in experiment [4], the midpoint of inhibition, the IC50, lay at 5.41 nM.

B10: chimeric antibody clone 11G12.1 (rab600_23_11G12.1) (antibody, V domains shown)
VH: QSLEESGGDLVQPGASLTLTCTASGFSVNVNSYMCWVRQAPGKGLELIACIDTGSGGSTWYGSWAKGRFTISKSTNLNTVTLQMTSLTAADTATYFCARARNTYGYGDYVYGGAFDPWGPGTLVTVSS
VL: DIVMTQTPASVEAAVGGTVTIKCQASQSISSTYLSWYQQKPGQRPKLLIYQASTLASGVPSRFKGSGSGTEFTLTISDLECADAATYYCQGGYFSDNGCYNAFGGGTEVVVK
notes: also called rab600_23_HG12.1
Turning to B10, the values for the EC50 in experiment [1] and in experiment [3] were 0.191 nM and 0.261 nM, respectively. Moreover, the binding result in experiment [2] was “no binding”.

B11: chimeric antibody clone 25.71 (rab600_25_71) (antibody, V domains shown)
VH: QSVEESEGRLVTPGTPLTLTCTVSGIDLSSYAMGWVRQAPGMGLEWIGDISTSGNAYYATWVKGRFTISRTSTTVDLKMASLTTADTATYFCARADYGGETYAFDPWGPGTLVTVSS
VL: DIVMTQTPASVEAAVGGTVTIKCQASQSISSYLNWYQQKPGQPPKLLIYSASTLASGVPSRFKGSGSGTQFTLTISGVECADAATYYCQQGYSDSNIDNVFGGGTEVVVK
In the case of B11, the EC50 in experiment [1] was 0.197 nM; in experiment [3], 0.147 nM; in experiment [5], 0.091 nM. Moreover, in experiment [2], the binding result was “no binding”. Also, the IC50 in experiment [4] is 2.98 nM.

For the origin of these results see patent US20220372154A1 (APEXIGEN, published 2022).
